# Test results as given in patent US20190142963A1 (INDIANA UNIVERSITY RESEARCH AND TECHNOLOGY, published 2019).
# Target: T1, human Klotho β (human, UniProt Q86Z14 1-1044)
# T1 sequence (looked up): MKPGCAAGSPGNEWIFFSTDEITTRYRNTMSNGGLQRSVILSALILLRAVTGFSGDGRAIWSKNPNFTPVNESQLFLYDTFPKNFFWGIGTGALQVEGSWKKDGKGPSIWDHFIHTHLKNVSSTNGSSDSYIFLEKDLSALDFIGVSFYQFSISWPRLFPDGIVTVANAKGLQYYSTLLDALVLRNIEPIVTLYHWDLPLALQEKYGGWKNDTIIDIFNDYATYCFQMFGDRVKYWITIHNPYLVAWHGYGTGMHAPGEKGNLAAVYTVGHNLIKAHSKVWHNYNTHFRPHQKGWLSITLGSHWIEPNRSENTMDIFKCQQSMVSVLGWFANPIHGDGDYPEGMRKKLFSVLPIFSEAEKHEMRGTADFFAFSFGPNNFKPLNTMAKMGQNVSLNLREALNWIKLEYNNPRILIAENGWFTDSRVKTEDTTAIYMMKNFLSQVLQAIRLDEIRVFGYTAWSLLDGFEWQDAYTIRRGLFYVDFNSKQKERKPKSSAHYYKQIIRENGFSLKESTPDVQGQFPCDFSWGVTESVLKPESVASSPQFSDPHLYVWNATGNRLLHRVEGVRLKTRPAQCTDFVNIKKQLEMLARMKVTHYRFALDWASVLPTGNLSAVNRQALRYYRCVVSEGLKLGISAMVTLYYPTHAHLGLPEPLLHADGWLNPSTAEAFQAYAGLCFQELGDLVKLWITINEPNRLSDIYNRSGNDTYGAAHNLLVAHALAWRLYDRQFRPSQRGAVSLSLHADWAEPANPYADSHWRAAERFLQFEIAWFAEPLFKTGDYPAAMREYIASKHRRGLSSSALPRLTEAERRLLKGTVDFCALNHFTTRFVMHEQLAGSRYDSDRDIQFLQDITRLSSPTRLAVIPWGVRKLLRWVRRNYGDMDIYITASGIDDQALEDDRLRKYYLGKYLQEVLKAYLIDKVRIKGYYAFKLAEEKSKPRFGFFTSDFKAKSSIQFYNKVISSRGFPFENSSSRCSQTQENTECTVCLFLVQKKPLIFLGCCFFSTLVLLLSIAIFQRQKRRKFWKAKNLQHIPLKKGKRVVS
# Test: cell-based or functional assay
Substance,"IC-50 of antagonism of FGF21 (pErk1/2, 293 HEK hKLB cells)",IC-50 of antagonistic activity (FIG. 8A),IC-50 of antagonistic activity (FIG. 8B),"% maximal activity, Erk1/2 phosphorylation in 293T HEK hKLB cells (FIG. 9B)",EC-50 of Erk1/2 phosphorylation in 293T HEK hKLB cells (FIG. 9B)
FGF19 169-194 alanine mutant V181 (from UniProt O95750 191-216) (peptide),1.81 µM,,,,
FGF19 169-194 alanine mutant L170 (from UniProt O95750 191-216) (peptide),2.17 µM,,,,
FGF19 169-194 alanine mutant P169 (from UniProt O95750 191-216) (peptide),0.21 µM,,,,
FGF19 169-194 alanine mutant F192 (from UniProt O95750 191-216) (peptide),2.97 µM,,,,
FGF19 169-194 alanine mutant G183 (from UniProt O95750 191-216) (peptide),0.4 µM,,,,
FGF19 169-194 alanine mutant E193 (from UniProt O95750 169-194) (peptide),0.85 µM,,,,
FGF19 169-194 alanine mutant E171 (from UniProt O95750 191-216) (peptide),0.12 µM,,,,
FGF19 169-194 alanine mutant P190 (from UniProt O95750 191-216) (peptide),> 2 µM,,,,
FGF19 169-194 K194S (from UniProt O95750 191-216) (peptide),,22.3 nM,,,
FGF19 169-194 (from UniProt O95750 169-194) (peptide),0.27 µM,,0.05 µM,,
FGF19 169-194 alanine mutant L184 (from UniProt O95750 191-216) (peptide),0.2 µM,,,,

# Second part, the substance after the results:
"IC-50 of antagonism of FGF21 (pErk1/2, 293 HEK hKLB cells)",IC-50 of antagonistic activity (FIG. 8A),IC-50 of antagonistic activity (FIG. 8B),"% maximal activity, Erk1/2 phosphorylation in 293T HEK hKLB cells (FIG. 9B)",EC-50 of Erk1/2 phosphorylation in 293T HEK hKLB cells (FIG. 9B),Substance
> 2 µM,,,,,FGF19 169-194 alanine mutant S189 (from UniProt O95750 169-194) (peptide)
0.52 µM,,,,,FGF19 169-194 alanine mutant T182 (from UniProt O95750 191-216) (peptide)
> 2 µM,,,,,FGF19 169-194 alanine mutant S191 (from UniProt O95750 191-216) (peptide)
0.43 µM,,,,,FGF19 169-194 alanine mutant E185 (from UniProt O95750 191-216) (peptide)
0.69 µM,,,,,FGF19 169-194 alanine mutant V187 (from UniProt O95750 191-216) (peptide)
0.15 µM,,,,,FGF19 169-194 alanine mutant M175 (from UniProt O95750 191-216) (peptide)
1.93 µM,,,,,FGF19 169-194 alanine mutant G179 (from UniProt O95750 191-216) (peptide)
1.4 µM,,,,,FGF19 169-194 alanine mutant T172 (from UniProt O95750 191-216) (peptide)
0.46 µM,,,,,FGF19 169-194 alanine mutant D173 (from UniProt O95750 191-216) (peptide)
,17.3 nM,,,,FGF19 169-194 K194L (from UniProt O95750 191-216) (peptide)
0.38 µM,,,,,FGF19 169-194 alanine mutant R188 (from UniProt O95750 191-216) (peptide)
,,,31%,8.1 nM,FGF19 K194A (from UniProt O95750 25-216) (ligand)
,87.9 nM,,,,FGF19 169-194 K194E (from UniProt O95750 191-216) (peptide)
3.39 µM,,,,,FGF19 169-194 alanine mutant S174 (from UniProt O95750 191-216) (peptide)
